Reference: article PMC6970277

Tested on: DosR (His6-DosR, pre-phosphorylated with acetyl phosphate) (Mycobacterium tuberculosis)
Experiment: EMSA

Q: Which binding signal (fold inhibition of binding vs DMSO) does the source give for hspX promoter probe here?
A: 22
